Test results as given in US20140274782A1, “AFFINITY REAGENTS AND METHODS FOR DETECTION, PURIFICATION, AND PROTEOMIC ANALYSIS OF METHYLATED PROTEINS” (The Board of Trustees of the Leland Stanford Junior …, priority 2013, published 2014).

T1: G9a and GLP (Homo sapiens, UniProt Q96KQ7+Q9H9B1)
T1 sequence (Q96KQ7 2-1210 limits assumed): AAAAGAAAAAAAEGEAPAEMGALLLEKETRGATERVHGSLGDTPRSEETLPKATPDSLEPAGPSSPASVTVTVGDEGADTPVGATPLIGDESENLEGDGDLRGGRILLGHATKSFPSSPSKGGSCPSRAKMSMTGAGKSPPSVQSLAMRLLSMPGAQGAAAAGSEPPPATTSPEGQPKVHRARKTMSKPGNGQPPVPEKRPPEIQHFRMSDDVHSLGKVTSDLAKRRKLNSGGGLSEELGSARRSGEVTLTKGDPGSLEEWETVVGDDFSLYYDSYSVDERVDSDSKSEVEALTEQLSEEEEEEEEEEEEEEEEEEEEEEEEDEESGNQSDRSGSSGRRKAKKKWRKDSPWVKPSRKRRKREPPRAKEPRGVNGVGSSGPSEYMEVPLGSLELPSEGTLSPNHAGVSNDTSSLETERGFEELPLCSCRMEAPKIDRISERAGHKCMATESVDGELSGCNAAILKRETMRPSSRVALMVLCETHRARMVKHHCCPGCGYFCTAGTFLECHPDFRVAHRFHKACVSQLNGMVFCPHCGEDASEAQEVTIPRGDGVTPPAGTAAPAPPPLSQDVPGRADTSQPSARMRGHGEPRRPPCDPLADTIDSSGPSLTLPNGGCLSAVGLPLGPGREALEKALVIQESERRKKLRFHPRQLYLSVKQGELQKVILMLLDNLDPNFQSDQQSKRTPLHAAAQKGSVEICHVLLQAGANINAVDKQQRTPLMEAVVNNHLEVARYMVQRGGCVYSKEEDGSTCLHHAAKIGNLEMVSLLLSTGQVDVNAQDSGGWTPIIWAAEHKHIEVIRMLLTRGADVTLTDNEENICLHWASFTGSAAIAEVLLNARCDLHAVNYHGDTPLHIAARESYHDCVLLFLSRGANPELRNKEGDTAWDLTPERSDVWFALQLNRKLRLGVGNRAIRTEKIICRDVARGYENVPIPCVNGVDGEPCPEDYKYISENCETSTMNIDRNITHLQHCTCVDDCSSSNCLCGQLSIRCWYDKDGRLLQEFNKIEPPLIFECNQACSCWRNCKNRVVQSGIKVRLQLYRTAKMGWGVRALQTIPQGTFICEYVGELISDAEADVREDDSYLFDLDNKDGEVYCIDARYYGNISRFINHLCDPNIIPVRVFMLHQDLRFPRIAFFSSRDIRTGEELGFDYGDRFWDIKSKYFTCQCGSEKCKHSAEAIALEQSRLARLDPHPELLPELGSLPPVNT
T1 sequence (Q9H9B1 2-1298 limits assumed): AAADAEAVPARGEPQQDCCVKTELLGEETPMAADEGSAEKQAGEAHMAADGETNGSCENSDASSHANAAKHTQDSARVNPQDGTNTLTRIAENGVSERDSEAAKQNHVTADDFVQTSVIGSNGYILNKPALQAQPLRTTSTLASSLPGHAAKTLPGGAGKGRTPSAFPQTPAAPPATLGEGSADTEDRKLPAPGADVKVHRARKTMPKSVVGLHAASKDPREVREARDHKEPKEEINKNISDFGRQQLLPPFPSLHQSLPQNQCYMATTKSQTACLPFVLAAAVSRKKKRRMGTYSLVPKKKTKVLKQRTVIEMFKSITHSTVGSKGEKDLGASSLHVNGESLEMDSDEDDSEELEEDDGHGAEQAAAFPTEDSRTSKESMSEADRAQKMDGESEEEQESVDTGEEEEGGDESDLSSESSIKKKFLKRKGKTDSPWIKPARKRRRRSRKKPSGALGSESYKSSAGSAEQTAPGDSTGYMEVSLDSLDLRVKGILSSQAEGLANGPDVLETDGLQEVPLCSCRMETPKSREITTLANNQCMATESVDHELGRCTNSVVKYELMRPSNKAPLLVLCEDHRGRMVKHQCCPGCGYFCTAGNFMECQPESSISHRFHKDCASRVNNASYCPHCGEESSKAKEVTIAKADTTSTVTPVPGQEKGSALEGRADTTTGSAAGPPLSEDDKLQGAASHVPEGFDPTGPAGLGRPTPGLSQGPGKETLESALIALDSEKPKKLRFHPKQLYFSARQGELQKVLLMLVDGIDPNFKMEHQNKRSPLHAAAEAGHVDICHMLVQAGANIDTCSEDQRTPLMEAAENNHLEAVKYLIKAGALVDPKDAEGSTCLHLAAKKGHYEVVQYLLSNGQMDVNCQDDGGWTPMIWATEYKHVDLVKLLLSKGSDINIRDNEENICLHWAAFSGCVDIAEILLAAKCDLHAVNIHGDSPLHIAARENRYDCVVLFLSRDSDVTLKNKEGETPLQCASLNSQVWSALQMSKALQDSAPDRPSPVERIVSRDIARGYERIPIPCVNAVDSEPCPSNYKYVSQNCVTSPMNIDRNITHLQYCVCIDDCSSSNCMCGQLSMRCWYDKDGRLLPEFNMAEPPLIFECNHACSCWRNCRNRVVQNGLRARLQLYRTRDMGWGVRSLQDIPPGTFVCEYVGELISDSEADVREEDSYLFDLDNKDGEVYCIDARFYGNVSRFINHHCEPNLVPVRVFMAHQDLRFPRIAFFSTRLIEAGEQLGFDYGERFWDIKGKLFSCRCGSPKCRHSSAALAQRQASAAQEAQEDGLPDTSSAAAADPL

B1: ALKBH5 (protein, UniProt Q6P6C2 2-394, looked up)
RNA demethylase ALKBH5: AAASGYTDLREKLKSMTSRDNYKAGSREAAAAAAAAVAAAAAAAAAAEPYPVSGAKRKYQEDSDPERSDYEEQQLQKEEEARKVKSGIRQMRLFSQDECAKIEARIDEVVSRAEKGLYNEHTVDRAPLRNKYFFGEGYTYGAQLQKRGPGQERLYPPGDVDEIPEWVHQLVIQKLVEHRVIPEGFVNSAVINDYQPGGCIVSHVDPIHIFERPIVSVSFFSDSALCFGCKFQFKPIRVSEPVLSLPVRRGSVTVLSGYAADEITHCIRPQDIKERRAVIILRKTRLDAPRLETKSLSSSVLPPSYASDRLSGNNRDPALKPKRSHRKADPDAAHRPRILEMDKEENRRSVLLPTHRRRGSFSSENYWRKSYESSEDCSEAAGSPARKVKMRRH
B2: HNRNPC (protein, UniProt P07910 2-306, looked up)
Heterogeneous nuclear …: ASNVTNKTDPRSMNSRVFIGNLNTLVVKKSDVEAIFSKYGKIVGCSVHKGFAFVQYVNERNARAAVAGEDGRMIAGQVLDINLAAEPKVNRGKAGVKRSAAEMYGSVTEHPSPSPLLSSSFDLDYDFQRDYYDRMYSYPARVPPPPPIARAVVPSKRQRVSGNTSRRGKSGFNSKSGQRGSSKSGKLKGDDLQAIKKELTQIKQKVDSLLENLEKIEKEQSKQAVEMKNDKSEEEQSSSSVKKDETNVKMESEGGADDSAEEGDLLDDDDNEDRGDDQLELIKDDEKEAEEGEDDRDSANGEDDS
B3: TCERG1 (protein, UniProt O14776 1-1098, looked up)
Transcription elongation …: MAERGGDGGESERFNPGELRMAQQQALRFRGPAPPPNAVMRGPPPLMRPPPPFGMMRGPPPPPRPPFGRPPFDPNMPPMPPPGGIPPPMGPPHLQRPPFMPPPMSSMPPPPGMMFPPGMPPVTAPGTPALPPTEEIWVENKTPDGKVYYYNARTRESAWTKPDGVKVIQQSELTPMLAAQAQVQAQAQAQAQAQAQAQAQAQAQAQAQAQAQAQAQAQAQAQAQAQAQAQAQAQAQAQAQAQVQAQVQAQVQAQAVGASTPTTSSPAPAVSTSTSSSTPSSTTSTTTTATSVAQTVSTPTTQDQTPSSAVSVATPTVSVSTPAPTATPVQTVPQPHPQTLPPAVPHSVPQPTTAIPAFPPVMVPPFRVPLPGMPIPLPGVAMMQIVSCPYVKTVATTKTGVLPGMAPPIVPMIHPQVAIAASPATLAGATAVSEWTEYKTADGKTYYYNNRTLESTWEKPQELKEKEKLEEKIKEPIKEPSEEPLPMETEEEDPKEEPIKEIKEEPKEEEMTEEEKAAQKAKPVATAPIPGTPWCVVWTGDERVFFYNPTTRLSMWDRPDDLIGRADVDKIIQEPPHKKGMEELKKLRHPTPTMLSIQKWQFSMSAIKEEQELMEEINEDEPVKAKKRKRDDNKDIDSEKEAAMEAEIKAARERAIVPLEARMKQFKDMLLERGVSAFSTWEKELHKIVFDPRYLLLNPKERKQVFDQYVKTRAEEERREKKNKIMQAKEDFKKMMEEAKFNPRATFSEFAAKHAKDSRFKAIEKMKDREALFNEFVAAARKKEKEDSKTRGEKIKSDFFELLSNHHLDSQSRWSKVKDKVESDPRYKAVDSSSMREDLFKQYIEKIAKNLDSEKEKELERQARIEASLREREREVQKARSEQTKEIDREREQHKREEAIQNFKALLSDMVRSSDVSWSDTRRTLRKDHRWESGSLLEREEKEKLFNEHIEALTKKKREHFRQLLDETSAITLTSTWKEVKKIIKEDPRCIKFSSSDRKKQREFEEYIRDKYITAKADFRTLLKETKFITYRSKKLIQESDQHLKDVEKILQNDKRYLVLDCVPEERRKLIVAYVDDLDRRGPPPPPTASEPTRRSTK

system: 3×MBT domain of L3MBTL1; assay: Triple SILAC pull-down, 3xMBT/3xMBTD355N ratio (cytoplasmic, nuclear and chromatin fractions of 293T cells); format: binding, human; conditions: SILAC ratio, pull-down 3xMBT vs 3xMBTD355N; experiment with UNC0638 in heavy SILAC media;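 also: proteins quantified with MaxQuant, requiring at least two unique peptides and quantification in both label directions, normalized to the mean of proteins from a digested loading control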
Experimental: For stable isotope labeling by amino acids in cell culture (SILAC) experiments HEK 293T cells were grown for at least six doublings in DMEM for SILAC supplemented with 10% dialyzed fetal bovine serum (FBS), 230 mg/L L-proline and either 100 mg/L each of L-lysine and L-arginine (“light” medium), D4-L-lysine and ^13C6-L-arginine (“medium” media), or ^13C6^15N2-L-lysine and ^13C6^15N4-L-arginine (Thermo Scientific). Heavy methyl labeling used DMEM without L-Methionine or L-Cysteine supplemented with D3^13C-L-Methionine (Sigma), L-Cysteine (Sigma) and 10% dialyzed FBS.
For UNC0638 treatments cells were treated for 24 hours with UNC0638 at 2.5 μM or DMSO vehicle control. One experiment treated cells in light media with UNC0638, the other treated cells in heavy media. Both experiments included cells in medium media treated with DMSO for negative control pull-down with 3×MBTD355N.
UNC0638 treatment experiments used a Q-Exactive mass spectrometer (ThermoFisher Scientific). A 25 cm HPLC column with 3 μm Reliasil (Orochem) was used to separate peptides over a 4 hour gradient from 0 to 75% acetonitrile. Ions were generated using a custom nanospray source flowing at 250 nL/minute. Mass spectrometry settings were 70,000 MS1 resolution, data dependent selection of up to 20 precursor ions per cycle, dynamic exclusion of 30 seconds and isolation window of 2 m/z. The nuclear fraction from the experiment using UNC0638 on cells in heavy media was additionally analyzed by 2D HPLC-MS/MS as described earlier.
Peptides were identified and quantified using MaxQuant version 1.2.2.5 (Cox and Mann, supra) with the following changes to default settings: mono- and di-methylation of lysine, and oxidation of methionine, and N-terminal acetylation as variable modifications, disabled “I=L”, up to three modifications per peptide, one missed cleavage, maximum charge of 5. Protein and peptide FDR were set to 1%, and proteins were filtered post-hoc for at least two unique peptides. Proteins were excluded from an experiment if they were not quantified in both labeling directions. Because FDR is unreliable for small numbers of peptides the modification site FDR was set to 10% and all methylated peptides were manually verified. […] Quantitative protein data was normalized to the mean value among proteins identified by analyzing 50 ng of digested loading control.
For UNC0638 experiments the treated vs. untreated ratio was determined by subtracting the value from 3×MBTD355N prior to dividing values from the light and heavy channels. Only proteins showing a two-fold signal to background ratio (3×MBT/3×MBTD355N) were evaluated as potential G9a/GLP substrates.

Molecule	3xMBT/D355N UNC Heavy [log base 2]
B1	1.96
B2	2.39
B3	2.34

same assay, conditions: SILAC ratio, pull-down 3xMBT vs 3xMBTD355N; experiment with UNC0638 in light SILAC media

Molecule	3xMBT/D355N UNC Light [log base 2]
B1	1.73
B2	2.62
B3	3.64

target: T1, G9a and GLP; assay: Triple SILAC pull-down after UNC0638 treatment of 293T cells, DMSO/UNC0638 ratio of protein captured by 3×MBT; format: cell-based; parameters: cells were treated for 24 hours with UNC0638 at 2.5 μM or DMSO vehicle control; endogenous in cells; host or cells: HEK 293T; conditions: SILAC ratio DMSO/UNC0638 of protein pulled down with 3xMBT; UNC0638 in heavy SILAC media;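 also: mass spectrometry (Q-Exactive) SILAC quantitation, DMSO/UNC0638 ratio computed after subtracting 3×MBTD355N mutant pull-down background, only proteins with at least twofold 3×MBT over mutant signal considered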

Molecule	Relative to UNC0638 UNC Heavy [log base 2]
B1	0.29
B2	0.07
B3	−0.10

same assay, conditions: SILAC ratio DMSO/UNC0638 of protein pulled down with 3xMBT; UNC0638 in light SILAC media

Molecule	Relative to UNC0638 UNC Light [log base 2]
B1	−0.01
B2	0.20
B3	0.37

same assay, conditions: average of UNC Light and UNC Heavy experiments

Molecule	Relative to UNC0638 Average [log base 2]
B1	0.14
B2	0.13
B3	0.13
